Our source for the binding values is US20240368655.

The data set addresses Concanavalin A (UniProt P02866). Briefly: SELEX. The conditions noted are these: FANA copy of the listed DNA template; every U is C8-alkyne-FANA U conjugated to 2-azidoethyl-alpha-D-mannose; displayed on its encoding dsDNA; round 3 recovery by qPCR; round 1 about 0.14%; PBS, 2.5 mM MgCl2, 1 mM CaCl2, 0.1 mM MnCl2, 0.01% Tween 20, room temperature.

On to “CCTATAGCCGTTTGCACAAGNNNNNNNNNNNNNNNNNNNNNNNNNNNNNNNNNNNNNNNNCCCGTACCCGTTAAGATTACTTCGGACTGGGATC [Man-cmFANA N40 library, round 3]”, for which the binding was found to be 47 % recovery.
